Data as given in patent US20030236190A1 (published 2003).
Positions of bridges follow the written chain, without caps; N, C: chain ends. No end group written: not given here.

B1: 26L-3-G5-IR (peptide)
peptide: AETSAQVGWQRLWSVWPGDHWSTLDPFYHKLSELLRESGA
modifications: not fully specified (residue 27, N-terminus, C-terminus); printed as AETSAQVGWQRLWSVWPGDHWSTLDP9YHKLSELLRESGA
B2: 20E2A-4-G11-IGFR (peptide)
peptide: MNVFVSFYDAIDQLVCQRIGC
modifications: not fully specified (N-terminus, C-terminus, bridges); cysteine pairing not given here
B3: D815-6aa-G33 (peptide)
peptide: WLDQERAWLWCEISGRGCLSGGSGGSGIISQSCPESFYDWFAGQVSDPWWCW
notes: Site 2-Site 1 dimer peptide, recombinant; also called D815-G33 (6 aa linker); D815-6-G33
B4: D815-6aa-RP9 (peptide)
peptide: WLDQERAWLWCEISGRGCLSGGSGGSGSLDESFYDWFERQLGKK
notes: Site 2-Site 1 dimer peptide, recombinant; also called D815-RP9 (6 aa linker); D815-6-RP9

Molecular target: T1, Insulin receptor (IR) prepared according to Bass et al., 1996 (human, UniProt P06213 28-956)
T1 construct: extracellular domain; also called soluble IR (Bass construct); sIR-Fc; not shown: immunoglobulin heavy chain constant domains of the Bass chimera
Experiment: not given

| ratio over background, IR | Binder |
| --- | --- |
| 1.1 ratio over background | GCITAENGAGDPFYHKLSELGGCS (disulfide 2-23 (inferred); not fully specified (N-terminus, C-terminus)) [B6Hα-1-23-IR] |
| 0.3 ratio over background | LSCLAYSRHGIWRPSTDLGLGRSVGEGSVSTRWRGYDWFE [40F-4-D1-IGFR] |
| 1.3 ratio over background | CSMAAVAEAGDDDDPFYHKLSELCQGS [B6Hα-3-F1-IR] |
| 1.5 ratio over background | GHYFGSFYDAIDQLVAGMLPG [20E2A-3-A3-IGFR] |
| 1.5 ratio over background | QSGSGDFYDWLSRLIRGNGDG (not fully specified (N-terminus, C-terminus)) [20E2Bβ-3-C7-IR] |
| 1.8 ratio over background | AGSVTSFYDAMEQLVATGTSA [20E2A-3-A4-IGFR] |
| 1 ratio over background | SSETAKMVTGTRDDPFYHKLSELVQGS [B6Hα-2-D8-IR] |
| 1.2 ratio over background | CGAKMTGTPNDPFYHKLSELLQRG [B6Hα-3-E6-IR] |
| 3.6 ratio over background | VRGFQGGTVWPGYEWLRNAA (not fully specified (N-terminus, C-terminus)) [R20β-E8-IR] |
| 1.4 ratio over background | B1 |
| 1 ratio over background | RCGDEEGWQENRRDDPFYHKLSELFGGC (disulfide 2-28 (inferred); not fully specified (N-terminus, C-terminus)) [B6Hα-3-ES-IR] |
| 1.3 ratio over background | B2 |

Molecular target: T1, Insulin receptor (IR) prepared …
Experiment: phage ELISA; ratio over background for IR divided by that for IGF-1R

| IR/IGF-1R ratio comparison | Binder |
| --- | --- |
| 0.3 ratio | GCITAENGAGDPFYHKLSELGGCS (disulfide 2-23 (inferred); not fully specified (N-terminus, C-terminus)) [B6Hα-1-23-IR] |
| 0.1 ratio | LSCLAYSRHGIWRPSTDLGLGRSVGEGSVSTRWRGYDWFE [40F-4-D1-IGFR] |
| 0.5 ratio | CSMAAVAEAGDDDDPFYHKLSELCQGS [B6Hα-3-F1-IR] |
| 0.5 ratio | GHYFGSFYDAIDQLVAGMLPG [20E2A-3-A3-IGFR] |
| 0.5 ratio | QSGSGDFYDWLSRLIRGNGDG (not fully specified (N-terminus, C-terminus)) [20E2Bβ-3-C7-IR] |
| 0.7 ratio | AGSVTSFYDAMEQLVATGTSA [20E2A-3-A4-IGFR] |
| 0.3 ratio | SSETAKMVTGTRDDPFYHKLSELVQGS [B6Hα-2-D8-IR] |
| 0.5 ratio | CGAKMTGTPNDPFYHKLSELLQRG [B6Hα-3-E6-IR] |
| 0.1 ratio | VRGFQGGTVWPGYEWLRNAA (not fully specified (N-terminus, C-terminus)) [R20β-E8-IR] |
| 0.7 ratio | B1 |
| 0.3 ratio | RCGDEEGWQENRRDDPFYHKLSELFGGC (disulfide 2-28 (inferred); not fully specified (N-terminus, C-terminus)) [B6Hα-3-ES-IR] |
| 0.4 ratio | B2 |

Molecular target: human IGF-1R on FDCP-2 cells (human, UniProt P08069 31-1367)
Experiment: cell-based or functional assay

| Max Action | ED50 Growth | IC50 Antag. | Ki/ED50 | Binder |
| --- | --- | --- | --- | --- |
| < 10% |  |  |  | B3 |
| > 50% | 500 nM |  |  | WLDQERAWLWCEISGRGCLS (disulfide 11-18 (inferred), Recombinant form) [recombinant peptide surrogate D815 (rD815)] |
| > 50% | 50 nM | > 500 nM | 0.8 | B4 |

Molecular target: T2, Soluble IGF-1R (UniProt P08069 31-935, limits assumed)
T2 construct: extracellular domain; Bought reagent; also called sIGF-1R; insulin-like growth factor receptor
Experiment: phage ELISA; ratio over background for IGF-1R divided by that for IR

| IGF-1R/IR ratio comparison | Binder |
| --- | --- |
| 2.9 ratio | GCITAENGAGDPFYHKLSELGGCS (disulfide 2-23 (inferred); not fully specified (N-terminus, C-terminus)) [B6Hα-1-23-IR] |
| 13.1 ratio | LSCLAYSRHGIWRPSTDLGLGRSVGEGSVSTRWRGYDWFE [40F-4-D1-IGFR] |
| 1.8 ratio | CSMAAVAEAGDDDDPFYHKLSELCQGS [B6Hα-3-F1-IR] |
| 1.9 ratio | GHYFGSFYDAIDQLVAGMLPG [20E2A-3-A3-IGFR] |
| 2 ratio | QSGSGDFYDWLSRLIRGNGDG (not fully specified (N-terminus, C-terminus)) [20E2Bβ-3-C7-IR] |
| 1.4 ratio | AGSVTSFYDAMEQLVATGTSA [20E2A-3-A4-IGFR] |
| 3 ratio | SSETAKMVTGTRDDPFYHKLSELVQGS [B6Hα-2-D8-IR] |
| 1.9 ratio | CGAKMTGTPNDPFYHKLSELLQRG [B6Hα-3-E6-IR] |
| 9.7 ratio | VRGFQGGTVWPGYEWLRNAA (not fully specified (N-terminus, C-terminus)) [R20β-E8-IR] |
| 2.9 ratio | RCGDEEGWQENRRDDPFYHKLSELFGGC (disulfide 2-28 (inferred); not fully specified (N-terminus, C-terminus)) [B6Hα-3-ES-IR] |
| 2.6 ratio | B2 |

Molecular target: T2, Soluble IGF-1R
Experiment: not given

| ratio over background, IGF-1R | Binder |
| --- | --- |
| 3.2 ratio over background | GCITAENGAGDPFYHKLSELGGCS (disulfide 2-23 (inferred); not fully specified (N-terminus, C-terminus)) [B6Hα-1-23-IR] |
| 4.6 ratio over background | LSCLAYSRHGIWRPSTDLGLGRSVGEGSVSTRWRGYDWFE [40F-4-D1-IGFR] |
| 2.4 ratio over background | CSMAAVAEAGDDDDPFYHKLSELCQGS [B6Hα-3-F1-IR] |
| 3 ratio over background | GHYFGSFYDAIDQLVAGMLPG [20E2A-3-A3-IGFR] |
| 3.1 ratio over background | QSGSGDFYDWLSRLIRGNGDG (not fully specified (N-terminus, C-terminus)) [20E2Bβ-3-C7-IR] |
| 2.5 ratio over background | AGSVTSFYDAMEQLVATGTSA [20E2A-3-A4-IGFR] |
| 3 ratio over background | SSETAKMVTGTRDDPFYHKLSELVQGS [B6Hα-2-D8-IR] |
| 2.3 ratio over background | CGAKMTGTPNDPFYHKLSELLQRG [B6Hα-3-E6-IR] |
| 34.9 ratio over background | VRGFQGGTVWPGYEWLRNAA (not fully specified (N-terminus, C-terminus)) [R20β-E8-IR] |
| 2.9 ratio over background | RCGDEEGWQENRRDDPFYHKLSELFGGC (disulfide 2-28 (inferred); not fully specified (N-terminus, C-terminus)) [B6Hα-3-ES-IR] |
| 3.3 ratio over background | B2 |

Molecular target: T3, recombinant human IGF-1R (rhIGF-1R) (human, UniProt P08069 31-935)
T3 construct: extracellular domain; Coated on plates in the TRF assay and europium-labelled (LANCE) in the TR-FRET assays; also called rhIGE-1R; Eu3+-rhIGF-1R
Experiment: column 'nM Ki app Kd' of Table 15 (IGF-1R summary); values match the TRF competition with b-rhIGF-1 on rhIGF-1R of Table 20
Method: (§1) The plates were incubated for 2 hr at RT.

| Ki | Binder |
| --- | --- |
| 624 nM | B3 |
| 4080 nM | WLDQERAWLWCEISGRGCLS (disulfide 11-18 (inferred), Recombinant form) [recombinant peptide surrogate D815 (rD815)] |
| 36 nM | B4 |

Molecular target: T3, recombinant human IGF-1R (rhIGF-1R)
Experiment: heterogeneous TRF (DELFIA) competition with b-rhIGF-1 for plate-coated rhIGF-1R
Method: as §1

| IC50 | Binder |
| --- | --- |
| 624 nM | B3 |
| 4080 nM | WLDQERAWLWCEISGRGCLS (disulfide 11-18 (inferred), Recombinant form) [recombinant peptide surrogate D815 (rD815)] |
| 35.7 nM | B4 |
